These are literature values, as cited in publication PMC2757091.

Some targets named below: Cerberus (UniProt O95813); Chordin (UniProt Q9H2X0); Noggin (UniProt Q13253).

Sequence of BMP4 (P12644 293-408): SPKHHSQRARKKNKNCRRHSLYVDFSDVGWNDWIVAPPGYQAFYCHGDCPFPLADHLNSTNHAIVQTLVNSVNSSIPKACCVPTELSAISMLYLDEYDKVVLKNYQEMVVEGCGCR
Sequence of Noggin (Q13253 28-232): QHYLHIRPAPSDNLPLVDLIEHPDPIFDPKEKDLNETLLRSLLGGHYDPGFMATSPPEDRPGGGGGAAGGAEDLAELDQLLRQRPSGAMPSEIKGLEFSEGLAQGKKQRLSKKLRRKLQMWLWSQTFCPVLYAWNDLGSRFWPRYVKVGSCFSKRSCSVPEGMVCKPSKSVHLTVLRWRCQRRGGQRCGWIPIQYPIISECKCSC
Sequence of Cerberus (O95813 18-267): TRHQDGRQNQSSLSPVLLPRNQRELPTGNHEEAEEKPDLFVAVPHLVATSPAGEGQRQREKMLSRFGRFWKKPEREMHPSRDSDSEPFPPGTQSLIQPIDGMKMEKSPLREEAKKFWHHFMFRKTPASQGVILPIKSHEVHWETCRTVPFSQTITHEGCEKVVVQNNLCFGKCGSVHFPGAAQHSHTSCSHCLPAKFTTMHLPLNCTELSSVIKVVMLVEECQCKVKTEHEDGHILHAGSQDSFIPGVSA
Sequence of Chordin (Q9H2X0 27-955): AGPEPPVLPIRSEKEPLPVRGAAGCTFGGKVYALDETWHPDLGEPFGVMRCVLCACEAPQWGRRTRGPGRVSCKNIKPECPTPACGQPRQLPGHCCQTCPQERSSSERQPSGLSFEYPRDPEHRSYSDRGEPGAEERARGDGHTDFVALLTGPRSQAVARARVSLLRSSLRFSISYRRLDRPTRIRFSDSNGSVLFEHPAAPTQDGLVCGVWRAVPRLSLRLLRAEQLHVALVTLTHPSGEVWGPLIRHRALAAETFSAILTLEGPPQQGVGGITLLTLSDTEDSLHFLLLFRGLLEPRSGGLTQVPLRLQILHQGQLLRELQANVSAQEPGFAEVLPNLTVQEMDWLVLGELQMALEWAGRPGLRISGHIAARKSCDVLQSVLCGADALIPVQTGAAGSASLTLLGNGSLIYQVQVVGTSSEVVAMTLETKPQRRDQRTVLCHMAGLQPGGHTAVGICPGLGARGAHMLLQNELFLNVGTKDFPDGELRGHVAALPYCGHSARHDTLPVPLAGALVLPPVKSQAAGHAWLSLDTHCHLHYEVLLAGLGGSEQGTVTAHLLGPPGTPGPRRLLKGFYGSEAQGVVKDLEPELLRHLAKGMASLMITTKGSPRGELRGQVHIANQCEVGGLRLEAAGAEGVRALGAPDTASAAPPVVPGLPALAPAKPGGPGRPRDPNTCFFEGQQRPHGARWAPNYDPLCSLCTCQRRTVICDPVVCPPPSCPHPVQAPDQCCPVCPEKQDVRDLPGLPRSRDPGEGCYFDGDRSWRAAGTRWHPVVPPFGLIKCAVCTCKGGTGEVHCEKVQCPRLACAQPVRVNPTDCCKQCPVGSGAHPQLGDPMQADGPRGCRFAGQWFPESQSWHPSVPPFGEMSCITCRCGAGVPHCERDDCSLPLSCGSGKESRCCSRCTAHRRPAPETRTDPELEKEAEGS

The Kd is the equilibrium constant for the complex coming apart. As for BMP4 (from UniProt P12644), the Kd with Cerberus was 0.6 nM; with Chordin, 0.2 nM; in the data set with Noggin, 0.02 nM.
